# According to patent US20160075746A1 (published 2016):
# Primed or numbered codes have the meaning given here. [ ]: non-standard residue; d: D form. The star is where a group is joined. PE = proline (from (4R)-azidoproline) carrying a 1,2,3-triazole-linked chondroitin sulfate E (CS-E) disaccharide; Biotin = O=C1N[C@H]2[C@H](CS[C@H]2CCCCC(=O)*)N1; PEG12″ = not defined here; PEG12′ = PEG12: -
# Tests used:
# [1] = biological target: nerve growth factor (NGF); assay: SPR (Biacore T100), glycopeptide immobilised on streptavidin CM5 chip, NGF 11-185 nM as analyte, two-state model, ka1
# nerve growth factor (NGF), sequence (chain, as listed by the source): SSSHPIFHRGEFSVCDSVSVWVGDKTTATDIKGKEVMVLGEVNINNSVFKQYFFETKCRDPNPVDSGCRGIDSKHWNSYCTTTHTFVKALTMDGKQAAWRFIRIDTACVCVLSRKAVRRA
# [2] = biological target: nerve growth factor (NGF); assay: SPR, glycopeptide immobilised, NGF analyte, two-state model
# [3] = biological target: nerve growth factor (NGF); assay: SPR, glycopeptide immobilised, NGF analyte, two-state model, kd1
# [4] = biological target: nerve growth factor (NGF); assay: ELISA, glycopeptide on streptavidin plate, NGF 0-60 nM, anti-NGF-HRP detection
# [5] = biological target: nerve growth factor (NGF); assay: SPR, two-state model, comparison of KD values with glycopeptide 1
# [6] = biological target: nerve growth factor (NGF); assay: cell-based or functional assay
kon [1] [M⁻¹ s⁻¹],Kd [2] [nM],koff [3] [s⁻¹],fold increase in NGF binding affinity in comparison to 1 [4] [fold],fold stronger binding to NGF than agent 1 (by KD) [5] [fold],"NGF-induced TrkA phosphorylation (Western blot, pTrkA/TrkA ratio) in PC12 cells [6] [%]",fold increase in NGF binding as compared to 1 [4] [fold],Binder
1950,2500,0.0322,,,,,{Biotin-PEG12′}-[PE][PE][PE][PE][PE][PE][PE][PE][PE][PE][PE][PE]-OMe (Immobilised through biotin on streptavidin in ELISA and SPR; also called agent 1; CS-E sulfated glycopeptide 1) [glycopeptide 1]
,,,~2.6,,,,{Biotin-PEG12″}-P[PE]P[PE]P[PE]P[PE]P[PE]P[PE]P[PE]P[PE]P[PE]P[PE]P[PE]P[PE]-OMe (also called agent 4; (PPE)12) [glycopeptide 4]
46500,137,0.0274,,~18,~40,4.6,{Biotin-PEG12′}-PP[PE]PP[PE]PP[PE]PP[PE]PP[PE]PP[PE]PP[PE]PP[PE]PP[PE]PP[PE]PP[PE]PP[PE]-OMe (All 12 CS-E disaccharides lie along one face of the PPII helix; also called agent 5; compound 5) [glycopeptide 5]
